Data on two molecules can be found in patent US20230054300A1 (PARIS SCIENCES ET LETTRES QUARTIER LATIN, published 2023).

Assay [1] addresses CLIP-PHloop protein (10xHis-CLIP-tagged glycine receptor β loop) (CLIP tag covalently bound (thioether) to the benzylcytosine at an extremity of the DNA molecule). Kind of assay: single-molecule magnetic tweezers; SNAP-gephyrin and CLIP-PHloop attached to the DNA molecule; force cycling FLF=0.01 pN for 13 s / FHF=1.1 pN for 52 s; 19.2 °C; GB buffer [continued].
Text: HF corresponds to the application of a high force (“High Force”); LF corresponds to the application of a low force (“Low Force”). The test molecules can be either associated (A for “Associated”) or dissociated (D for “Dissociated”).
In assay [2] the target is T1, FKBP12 protein having the sequence of SEQ ID NO: 7, with 4-azido-L-phenylalanine at position 1, conjugated to … (Homo sapiens (Human), UniProt P62942 2-108, 4-azido-L-phenylalanine in place of methionine at position 1; the azide is click-coupled to the DBCO-dT at the 5' end of oligo-Tc (Oligo-Tc2, SEQ ID NO: 5), which is ligated to the double-stranded …).
T1 construct: In the assay it is present as the binary complex with rapamycin (500 nM)
T1 sequence (P62942 other isoform, or with tags, fused parts or gaps limits assumed): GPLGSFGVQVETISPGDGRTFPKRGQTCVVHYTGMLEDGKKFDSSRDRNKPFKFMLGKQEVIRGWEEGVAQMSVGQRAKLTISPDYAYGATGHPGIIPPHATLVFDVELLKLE
As to the kind of experiment: magnetic tweezers, force cycling, FHF=1.4 pN, T=298 K, 500 nM rapamycin; kD=1/<τD> averaged over several molecules.

Assay [3] concerns the target T1, FKBP12 protein having the sequence of …. As to the kind of experiment: magnetic tweezers, spontaneous fluctuations at FCF=0.04 pN, 25 °C, 500 nM rapamycin, with 0-200 nM free FRB in solution; average over concentrations; 0-200 nM free FRB in solution; averaged over concentrations. As for the experimental part: (§1) Example 10 was performed either at 25° C. or at 30° C. in DB reaction buffer (20 mM K-Hepes pH 7.8, 100 mM KCl, 5 mM MgCl₂, 2 mM DTT, 0.1% Tween-20, 0.1 mg/ml BSA). Measurements were also performed at 19.2° C., 21.7° C., 25.4° C. and 29.1° C. (see FIG. 15E).
(§2) Said fraction of time spent by the test molecules in associated form is determined according to (Σt_{CF-A})/tₜₒₜₐₗ, where tₜₒₜₐₗ is the total time during which the fluctuations are recorded and analyzed.

The target is the same in assay [4]. Kind of assay: derived as kA=kD/KD; magnetic tweezers, FCF=0.04 pN, 25 °C, 500 nM rapamycin; derived as kA=kD/KD. As for the experimental part: as §1, §2
Assay [5] has the same target. Kind of assay: magnetic tweezers, spontaneous fluctuations at constant force FCF=0.04 pN, 25 °C, 500 nM rapamycin; average over several DNA molecules and inversion; no free FRB in solution; FCF=0.04 pN, 25 C. Here is the method:
as §1

The target is the same in assay [6]. As to the kind of experiment: magnetic tweezers, force cycling, FHF=6 pN, T=303 K, 500 nM rapamycin.
Text: (§3) At each passage at FLF=0.05 pN for time TLF=13 s, the test molecules associate, then, after passage at FHF=1.4 pN, they separate after a time indicated as t_HF-A. The high force is applied for time THF=155 s. […] C) Temporal monitoring of the extension of the double-stranded DNA molecule when the force is cycled between high value and low value (TS: schematic diagram of the FHF/FLF cycles). At each passage at FLF=0.05 pN for time TLF=14 s the test molecules associate and then, after passage at FHF=6 pN, they separate after a time indicated as t_HF-A. The high force is applied for time THF=125 s. […] The curves are provided for several temperatures: OT=29.1° C.; […]T=25.4° C.; ⋄ T=21.7° C.; x T=19.2° C. […] F) Variation of XD, the distance separating the transition state from the complex during dissociation, as a function of temperature. […] A linear fit in agreement with the Arrhenius-Bell model, ln[kD⁰]=A−ED/kBT, makes it possible to determine ED, the activation energy of the dissociation reaction.
as §1

The target is the same in assay [7]. As to the kind of experiment: magnetic tweezers, force cycling, FHF=1.4 pN, T=303 K, 500 nM rapamycin.
Text: as §3, §1

CLIP-PHloop protein (10xHis-CLIP-tagged glycine receptor β loop) (CLIP tag covalently bound (thioether) to the benzylcytosine at an extremity of the DNA molecule), sequence (chain, as listed by the source limits assumed): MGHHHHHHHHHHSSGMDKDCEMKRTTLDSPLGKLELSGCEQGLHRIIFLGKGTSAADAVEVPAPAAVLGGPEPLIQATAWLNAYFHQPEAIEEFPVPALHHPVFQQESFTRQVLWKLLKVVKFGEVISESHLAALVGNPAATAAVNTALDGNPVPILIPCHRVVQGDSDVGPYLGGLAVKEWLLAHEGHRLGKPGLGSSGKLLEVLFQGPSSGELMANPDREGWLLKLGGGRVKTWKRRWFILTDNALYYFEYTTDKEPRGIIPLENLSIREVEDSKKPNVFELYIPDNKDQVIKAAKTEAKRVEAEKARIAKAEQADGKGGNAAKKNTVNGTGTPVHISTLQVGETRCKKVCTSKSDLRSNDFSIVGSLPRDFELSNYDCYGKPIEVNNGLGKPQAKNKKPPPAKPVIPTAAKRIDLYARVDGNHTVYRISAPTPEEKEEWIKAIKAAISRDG

B1: SNAP-gephyrin rC4 (other)
chain: MRGSHHHHHHGSACELSSGLEVLFQGPHMASMDKDCEMKRTTLDSPLGKLELSGCEQGLHEIKLLGKGTSAADAVEVPAPAAVLGGPEPLMQATAWLNAYFHQPEAIEEFPVPALHHPVFQQESFTRQVLWKLLKVVKFGEVISYQQLAALAGNPAATAAVKTALSGNPVPILIPCHRVVSSSGAVGGYEGGLAVKEWLLAHEGHRLGKPGLGSSGGTMATEGMILTNHDHQIRVGVLTVSDSCFRNLAEDRSGINLKDLVQDPSLLGGTISAYKIVPDEIEEIKETLIDWCDEKELNLILTTGGTGFAPRDVTPEATKEVIEREAPGMALAMLMGSLNVTPLGMLSRPVCGIRGKTLIINLPGSKKGSQECFQFILPALPHAIDLLRDAIVKVKEVHDELEDLPSPPPPLSPPPTTSPHKQTEDKGVQCEEEEEEKKDSGVASTEDSSSSHITAAALAAKIPDSIISRGVQVLPRDTASLSTTPSESPRAQATSRLSTASCPTPKARLPSCSSTYSVSEVQSRCSSKENILRASHSAVDITKVARRHRMSPFPLTSMDKAFITVLEMTPVLGTEIINYRDGMGRVLAQDVYAKDNLPPFPASVKDGYAVRAADGPGDRFIIGESQAGEQPTQTVMPGQVMRVTTGAPIPCGADAVVQVEDTELIRESDDGTEELEVRILVQARPGQDIRPIGHDIKRGECVLAKGTHMGPSEIGLLATVGVTEVEVNKFPVVAVMSTGNELLNPEDDLLPGKIRDSNRSTLLATIQEHGYPTINLGIVGDNPDDLLNALNEGISRADVIITSGGVSMGEKDYLKQVLDIDLHAQIHFGRVFMKPGLPTTFATLDIDGVRKIIFALPGNPVSAVVTCNLFVVPALRKMQGILDPRPTIIKARLSCDVKLDPRPEYHRCILTWHHQEPLPWAQSTGNQMSSRLMSMRSANGLLMLPPKTEQYVELHKGEVVDVMVIGRL
modifications: SNAP tag covalently bound (thioether) to the benzylguanine at an extremity of the DNA molecule
notes: also called Gephyrin construct rC4
On to B1, for which the binding result in assay [1] is given as “binds”.

B2: FRB protein (FRB subunit of the mTOR protein complex) having the sequence of SEQ ID NO: 6, with 4-azido-L-phenylalanine at position 2,020, conjugated to an … (other)
chain: GPLGSFILWHEMWHEGLEEASRLYFGERNVKGMFEVLEPLHAMMERGPQTLKETSFNQAYGRDLMEAQEWCRKYMKSGNVKDLTQAWDLYYHVFRRISKQLPQL
modifications: 4-azido-L-phenylalanine in place of alanine at position 2,020; the azide is click-coupled to the DBCO-dT at the 5' end of oligo-Tc (Oligo-Tc1, SEQ ID NO: 4), which is ligated to the double-stranded DNA molecule
notes: Free FRB added in solution (0-200 nM) is described as identical to the test molecule
By koff is commonly meant the first-order rate constant of dissociation. A low value points to a long-lived complex. For orientation: kon means a measure of how fast the partners come together. The low end stands for slower complex formation, the high end for faster complex formation. With B2, the koff amounted to 0.0322 s⁻¹ in assay [2]; 0.0327 s⁻¹ in assay [3]; 0.0341 s⁻¹ in assay [5]; 0.0649 s⁻¹ in assay [6]; 0.0484 s⁻¹ in assay [7]. This molecule gave a kon in assay [4] of 4.5e+06 M⁻¹ s⁻¹.
